From patent US20230212549A1, “COMPOUNDS COMPRISING A […] LIGAND AND USE THEREOF” (priority 2021, published 2023)
Bridge positions count the residues as written; N and C are the ends.

T1: A20, P21580
T1 chain: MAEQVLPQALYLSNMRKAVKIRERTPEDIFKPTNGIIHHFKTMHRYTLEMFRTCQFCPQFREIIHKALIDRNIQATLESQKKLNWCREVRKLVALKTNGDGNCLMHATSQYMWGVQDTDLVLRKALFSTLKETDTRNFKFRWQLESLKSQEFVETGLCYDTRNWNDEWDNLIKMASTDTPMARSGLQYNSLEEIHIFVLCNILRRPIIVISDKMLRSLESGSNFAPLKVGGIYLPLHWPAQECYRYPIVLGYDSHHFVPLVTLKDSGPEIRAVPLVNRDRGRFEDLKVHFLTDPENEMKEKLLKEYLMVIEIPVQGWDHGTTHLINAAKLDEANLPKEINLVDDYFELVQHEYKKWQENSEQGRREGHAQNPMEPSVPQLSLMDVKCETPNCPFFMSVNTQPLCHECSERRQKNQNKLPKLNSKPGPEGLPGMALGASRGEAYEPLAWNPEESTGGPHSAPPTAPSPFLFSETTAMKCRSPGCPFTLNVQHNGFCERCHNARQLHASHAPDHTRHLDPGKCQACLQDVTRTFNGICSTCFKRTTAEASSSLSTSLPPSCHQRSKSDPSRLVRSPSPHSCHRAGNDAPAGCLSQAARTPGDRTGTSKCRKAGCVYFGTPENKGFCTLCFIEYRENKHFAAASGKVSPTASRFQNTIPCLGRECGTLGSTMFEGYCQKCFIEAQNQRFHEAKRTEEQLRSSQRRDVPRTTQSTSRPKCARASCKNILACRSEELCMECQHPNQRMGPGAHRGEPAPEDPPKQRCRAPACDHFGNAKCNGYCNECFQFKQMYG

T2: Cathepsin F, Q9UBX1
T2 chain: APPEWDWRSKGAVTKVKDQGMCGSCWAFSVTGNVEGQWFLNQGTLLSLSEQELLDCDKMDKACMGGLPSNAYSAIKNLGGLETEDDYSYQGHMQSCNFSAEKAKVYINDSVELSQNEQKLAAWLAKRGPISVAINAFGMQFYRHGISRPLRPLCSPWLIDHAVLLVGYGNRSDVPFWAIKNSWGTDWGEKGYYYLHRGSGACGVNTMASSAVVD

T3: Matrix metalloprotease 2, P08253
T3 chain: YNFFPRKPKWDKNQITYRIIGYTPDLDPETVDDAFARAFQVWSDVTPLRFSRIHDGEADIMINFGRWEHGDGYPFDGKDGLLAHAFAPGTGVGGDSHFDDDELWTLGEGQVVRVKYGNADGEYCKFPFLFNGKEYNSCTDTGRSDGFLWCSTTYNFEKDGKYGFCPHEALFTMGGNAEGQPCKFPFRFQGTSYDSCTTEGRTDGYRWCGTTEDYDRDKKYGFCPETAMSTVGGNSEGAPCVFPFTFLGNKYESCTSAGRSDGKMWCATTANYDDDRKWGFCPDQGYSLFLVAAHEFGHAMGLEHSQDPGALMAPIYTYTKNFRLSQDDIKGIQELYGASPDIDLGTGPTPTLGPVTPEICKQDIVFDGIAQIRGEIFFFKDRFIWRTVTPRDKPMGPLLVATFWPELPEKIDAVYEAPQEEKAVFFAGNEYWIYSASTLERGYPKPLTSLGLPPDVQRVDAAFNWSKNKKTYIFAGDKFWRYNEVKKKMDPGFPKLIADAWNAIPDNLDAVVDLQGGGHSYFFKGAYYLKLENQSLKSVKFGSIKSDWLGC

T4: Ubiquitin carboxyl-terminal hydrolase 8, P40818
T4 chain: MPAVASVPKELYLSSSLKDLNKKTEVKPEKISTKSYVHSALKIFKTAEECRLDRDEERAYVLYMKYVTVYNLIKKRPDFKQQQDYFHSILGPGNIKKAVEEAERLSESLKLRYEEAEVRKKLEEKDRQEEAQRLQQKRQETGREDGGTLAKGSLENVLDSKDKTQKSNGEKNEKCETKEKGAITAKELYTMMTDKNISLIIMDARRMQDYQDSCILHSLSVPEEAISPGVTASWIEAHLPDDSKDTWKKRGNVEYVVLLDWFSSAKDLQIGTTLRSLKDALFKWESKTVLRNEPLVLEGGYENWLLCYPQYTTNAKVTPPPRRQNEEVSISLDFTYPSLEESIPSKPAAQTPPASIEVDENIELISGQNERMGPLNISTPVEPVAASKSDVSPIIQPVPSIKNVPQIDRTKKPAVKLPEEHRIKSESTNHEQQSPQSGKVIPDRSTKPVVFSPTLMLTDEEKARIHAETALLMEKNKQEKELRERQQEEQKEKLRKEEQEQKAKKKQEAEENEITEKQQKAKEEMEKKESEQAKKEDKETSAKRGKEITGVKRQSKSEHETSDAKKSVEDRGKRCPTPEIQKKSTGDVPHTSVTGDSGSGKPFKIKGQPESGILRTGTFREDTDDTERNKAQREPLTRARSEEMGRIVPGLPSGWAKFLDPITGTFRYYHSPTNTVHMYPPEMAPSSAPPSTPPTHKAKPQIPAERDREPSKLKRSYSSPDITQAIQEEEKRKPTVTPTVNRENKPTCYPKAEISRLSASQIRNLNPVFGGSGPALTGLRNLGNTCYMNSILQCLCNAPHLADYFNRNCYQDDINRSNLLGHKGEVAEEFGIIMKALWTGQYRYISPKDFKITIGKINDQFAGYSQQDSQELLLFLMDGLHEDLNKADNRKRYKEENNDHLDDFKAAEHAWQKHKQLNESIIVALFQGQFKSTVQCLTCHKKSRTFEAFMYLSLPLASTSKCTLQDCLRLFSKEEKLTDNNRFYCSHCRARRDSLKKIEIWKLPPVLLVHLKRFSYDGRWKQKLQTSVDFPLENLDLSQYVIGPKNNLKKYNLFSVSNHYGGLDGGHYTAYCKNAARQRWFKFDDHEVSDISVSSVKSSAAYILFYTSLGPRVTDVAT


Assays:
Test in all cases: cell-based or functional assay
[1] = molecular target: T1, A20, P21580
[2] = molecular target: T2, Cathepsin F, Q9UBX1
[3] = molecular target: DPP8, Q6V1X1
Sequence of DPP8, Q6V1X1 (Q6V1X1 whole entry): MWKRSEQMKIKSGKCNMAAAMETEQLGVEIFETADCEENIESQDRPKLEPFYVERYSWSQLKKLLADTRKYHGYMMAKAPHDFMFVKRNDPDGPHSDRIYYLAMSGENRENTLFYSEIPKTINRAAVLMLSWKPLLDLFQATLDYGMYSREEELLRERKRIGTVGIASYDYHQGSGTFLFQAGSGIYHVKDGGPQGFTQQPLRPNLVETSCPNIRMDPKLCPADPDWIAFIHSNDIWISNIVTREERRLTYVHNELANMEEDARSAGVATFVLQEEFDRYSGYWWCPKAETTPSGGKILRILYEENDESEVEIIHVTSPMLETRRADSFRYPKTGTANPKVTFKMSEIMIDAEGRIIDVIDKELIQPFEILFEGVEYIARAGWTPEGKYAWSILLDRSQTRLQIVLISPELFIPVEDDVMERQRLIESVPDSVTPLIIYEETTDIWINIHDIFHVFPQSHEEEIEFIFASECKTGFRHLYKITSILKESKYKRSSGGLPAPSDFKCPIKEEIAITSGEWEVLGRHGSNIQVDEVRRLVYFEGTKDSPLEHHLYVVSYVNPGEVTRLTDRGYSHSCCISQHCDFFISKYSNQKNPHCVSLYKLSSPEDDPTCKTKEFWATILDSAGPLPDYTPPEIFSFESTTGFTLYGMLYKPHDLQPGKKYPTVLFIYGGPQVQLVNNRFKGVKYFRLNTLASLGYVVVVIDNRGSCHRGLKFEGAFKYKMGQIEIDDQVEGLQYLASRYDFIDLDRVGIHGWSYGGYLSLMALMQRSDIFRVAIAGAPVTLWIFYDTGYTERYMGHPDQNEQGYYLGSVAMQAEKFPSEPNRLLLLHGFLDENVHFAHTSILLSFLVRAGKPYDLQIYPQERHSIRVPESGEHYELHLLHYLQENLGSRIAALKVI

[4] = molecular target: FAP (protease specificity screen, BPS Biosciences), Q12884
Sequence of FAP (protease specificity screen, BPS Biosciences), Q12884 (Q12884 27-760 limits assumed): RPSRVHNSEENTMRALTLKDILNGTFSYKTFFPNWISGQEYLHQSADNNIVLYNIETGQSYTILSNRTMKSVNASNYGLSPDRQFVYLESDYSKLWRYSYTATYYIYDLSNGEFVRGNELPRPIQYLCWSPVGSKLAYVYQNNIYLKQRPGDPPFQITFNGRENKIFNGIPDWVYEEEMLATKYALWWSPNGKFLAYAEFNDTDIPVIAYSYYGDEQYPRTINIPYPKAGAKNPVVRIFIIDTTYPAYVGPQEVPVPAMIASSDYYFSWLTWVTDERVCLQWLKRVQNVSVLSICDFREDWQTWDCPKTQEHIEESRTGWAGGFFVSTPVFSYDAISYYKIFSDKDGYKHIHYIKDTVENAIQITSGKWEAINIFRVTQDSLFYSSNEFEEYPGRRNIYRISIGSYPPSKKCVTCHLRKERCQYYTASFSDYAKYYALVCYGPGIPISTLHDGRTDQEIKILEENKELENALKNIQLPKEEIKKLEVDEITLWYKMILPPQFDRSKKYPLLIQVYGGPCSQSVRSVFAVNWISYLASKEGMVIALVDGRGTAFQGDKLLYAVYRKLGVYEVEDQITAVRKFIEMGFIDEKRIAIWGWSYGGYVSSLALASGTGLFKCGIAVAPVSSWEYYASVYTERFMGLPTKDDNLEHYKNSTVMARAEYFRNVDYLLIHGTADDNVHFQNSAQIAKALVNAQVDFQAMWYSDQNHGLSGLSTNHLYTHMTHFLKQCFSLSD

[5] = molecular target: Lek kinase (h) (human), P06239
Sequence of Lek kinase (h) (human), P06239 (P06239 whole entry): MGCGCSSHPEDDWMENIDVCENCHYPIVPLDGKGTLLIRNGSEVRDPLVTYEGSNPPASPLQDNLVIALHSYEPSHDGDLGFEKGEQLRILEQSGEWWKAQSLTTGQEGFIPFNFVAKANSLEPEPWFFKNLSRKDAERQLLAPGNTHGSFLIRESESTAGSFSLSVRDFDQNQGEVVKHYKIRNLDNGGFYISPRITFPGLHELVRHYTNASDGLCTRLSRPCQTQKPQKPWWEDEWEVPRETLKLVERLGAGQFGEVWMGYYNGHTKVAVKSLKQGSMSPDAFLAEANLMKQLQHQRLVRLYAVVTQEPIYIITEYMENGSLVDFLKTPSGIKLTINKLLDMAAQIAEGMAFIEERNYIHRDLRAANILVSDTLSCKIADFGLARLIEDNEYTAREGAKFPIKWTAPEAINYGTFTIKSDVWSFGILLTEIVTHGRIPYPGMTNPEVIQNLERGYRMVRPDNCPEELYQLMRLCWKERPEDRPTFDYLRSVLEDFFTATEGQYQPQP

[6] = molecular target: T3, Matrix metalloprotease 2, P08253
[7] = molecular target: Ubiquitin carboxyl-terminal hydrolase 7, Q93009
Sequence of Ubiquitin carboxyl-terminal hydrolase 7, Q93009 (Q93009 whole entry): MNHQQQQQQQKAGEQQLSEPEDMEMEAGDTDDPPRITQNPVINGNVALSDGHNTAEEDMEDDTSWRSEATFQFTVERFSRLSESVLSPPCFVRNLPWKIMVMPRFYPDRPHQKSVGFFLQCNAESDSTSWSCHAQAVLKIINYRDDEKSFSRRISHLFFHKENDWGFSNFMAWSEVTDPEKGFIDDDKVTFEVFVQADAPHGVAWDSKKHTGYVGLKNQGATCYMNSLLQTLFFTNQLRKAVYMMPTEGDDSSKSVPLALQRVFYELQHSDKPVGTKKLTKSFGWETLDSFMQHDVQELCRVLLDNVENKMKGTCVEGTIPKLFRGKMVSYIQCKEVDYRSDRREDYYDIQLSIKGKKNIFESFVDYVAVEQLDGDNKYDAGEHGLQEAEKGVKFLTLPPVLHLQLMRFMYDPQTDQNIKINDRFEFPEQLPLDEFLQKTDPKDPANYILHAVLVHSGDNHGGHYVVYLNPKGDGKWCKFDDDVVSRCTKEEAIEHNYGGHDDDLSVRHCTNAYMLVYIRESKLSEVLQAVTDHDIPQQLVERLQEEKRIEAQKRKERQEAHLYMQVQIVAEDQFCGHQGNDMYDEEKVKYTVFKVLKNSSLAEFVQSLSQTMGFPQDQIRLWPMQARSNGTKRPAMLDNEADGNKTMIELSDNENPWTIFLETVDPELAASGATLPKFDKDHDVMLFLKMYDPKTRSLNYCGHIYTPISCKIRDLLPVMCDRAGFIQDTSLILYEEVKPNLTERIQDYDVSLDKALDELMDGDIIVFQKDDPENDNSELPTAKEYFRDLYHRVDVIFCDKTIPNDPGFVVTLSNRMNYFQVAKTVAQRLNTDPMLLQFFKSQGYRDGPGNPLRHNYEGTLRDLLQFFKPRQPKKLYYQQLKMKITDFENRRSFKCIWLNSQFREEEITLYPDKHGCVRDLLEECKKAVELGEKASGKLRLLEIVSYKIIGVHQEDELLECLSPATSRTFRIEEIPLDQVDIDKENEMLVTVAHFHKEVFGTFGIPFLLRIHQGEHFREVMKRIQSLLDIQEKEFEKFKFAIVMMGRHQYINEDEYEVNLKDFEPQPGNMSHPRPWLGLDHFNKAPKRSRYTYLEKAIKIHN

[8] = molecular target: T4, Ubiquitin carboxyl-terminal hydrolase …

Row | Binder | Percentage inhibition (%) at 1 µM [1] [%] | Percentage inhibition (%) at 10 µM [1] [%] | Percentage inhibition (%) at 1 µM [2] [%] | Percentage inhibition (%) at 10 µM [2] [%] | Percentage inhibition (%) at 1 µM [3] [%] | Percentage inhibition (%) at 10 µM [3] [%] | Percentage inhibition (%) at 1 µM [4] [%] | Percentage inhibition (%) at 10 µM [4] [%] | % inhibition of control enzyme activity, compound at 10 µM [5] [%] | Percentage inhibition (%) at 1 µM [6] [%] | Percentage inhibition (%) at 10 µM [6] [%] | Percentage inhibition (%) at 1 µM [7] [%] | Percentage inhibition (%) at 10 µM [7] [%] | Percentage inhibition (%) at 1 µM [8] [%] | Percentage inhibition (%) at 10 µM [8] [%]
1 | Hex-CPPTQFC-OH (bridge 1-7; not fully specified (bridges); printed as Hex-[Cys(tMeBn(DOTA-AET))-Pro-Pro-Thr-Gln-Phe-Cys]-OH) [Hex-[Cys(tMeBn(DOTA-AET))-Pro-Pro-Thr-Gln-Phe-Cys]-OH] | 1 | 0 | -23 | -25 | 1 | 11 | 97 | 99 | -4 | -1 | -2 | 1 | 1 | 2 | 1
2 | Hex-CPPTQFCD-NH2 (bridge 1-7; not fully specified (bridges); printed as Hex-[Cys(tMeBn(DOTA-PP))-Pro-Pro-Thr-Gln-Phe-Cys]-Asp-NH2) [Hex-[Cys(tMeBn(DOTA-PP))-Pro-Pro-Thr-Gln-Phe-Cys]-Asp-NH2] | 2 | -4 | -3 | -24 | 1 | 5 | 98 | 99 | 10 | 3 | 3 | 5 | 5 | -3 | 6
